Measurements taken from US20040126882, “Regulatable, catalytically active nucleic acids” (published 2004).

T1: Cyt18 (mitochondrial tyrosyl-tRNA synthetase, CYT-18) (Neurospora crassa, UniProt P12063 P12063:33-669)
T1 sequence: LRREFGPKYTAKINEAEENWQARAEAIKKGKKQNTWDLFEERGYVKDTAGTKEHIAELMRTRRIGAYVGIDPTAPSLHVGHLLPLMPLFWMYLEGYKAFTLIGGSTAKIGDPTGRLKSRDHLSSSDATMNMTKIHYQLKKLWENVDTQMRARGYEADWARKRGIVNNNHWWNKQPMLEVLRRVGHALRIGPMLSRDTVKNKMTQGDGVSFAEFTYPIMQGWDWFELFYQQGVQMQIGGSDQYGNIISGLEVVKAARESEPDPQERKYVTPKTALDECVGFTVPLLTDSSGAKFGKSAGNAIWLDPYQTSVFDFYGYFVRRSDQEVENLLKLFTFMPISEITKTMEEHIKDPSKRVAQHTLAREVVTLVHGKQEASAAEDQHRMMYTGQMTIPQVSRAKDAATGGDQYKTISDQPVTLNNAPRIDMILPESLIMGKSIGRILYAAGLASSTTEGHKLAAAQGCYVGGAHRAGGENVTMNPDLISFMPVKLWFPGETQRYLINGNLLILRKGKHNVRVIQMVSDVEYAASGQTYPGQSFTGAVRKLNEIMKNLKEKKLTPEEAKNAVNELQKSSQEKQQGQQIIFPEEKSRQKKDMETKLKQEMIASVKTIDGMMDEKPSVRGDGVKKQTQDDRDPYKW


Legend:
[1] = molecular target: T1, Cyt18 (mitochondrial tyrosyl-tRNA …); assay: competition; conditions: chain copies: 2
Method: (§1) Ligation assays. In one example, 10 pmol of [³²P]-body-labeled ribozyme and 20 pmol effector oligonucleotide were denatured for 3 min at 70° C. in 5 μl water. The RNA mixture was cooled to room temperature followed by addition of ligation buffer and target protein (20 pmol unless otherwise stated, or water in place of ligand, in the case of […]). After a 5 min equilibration at room temperature, reactions were initiated by the addition of 20 pmol substrate oligonucleotide (S28A) in a final volume of 15 μl. Reactions were incubated at 25° C., and 4 μl aliquots were removed at three appropriate time points and terminated by the addition of 18 μl of SDS stop mix (100 mM EDTA, 80% formamide, 0.8% SDS, 0.05% bromophenol blue, 0.05% xylene cyanol). Samples were denatured for 3 min at 70° C., ligated and unligated species were separated from one another on 8% polyacrylamide gels containing 0.1% SDS, and the amounts of products formed were determined using a Phosphorimager (Molecular Dynamics, Sunnyvale, Calif.). Assays performed over a broad range of protein concentrations (e.g, FIG. 21) differed from typical reaction conditions in that only 1 pmol ribozyme was present in a 10 μl final volume.
(§2) Competition assays. Ligation assays were performed as described above, using 10 pmol of [³²P]-body-labeled ribozyme (cyt7-2 or lys11-2; […]) and 20 pmol effector oligonucleotide (2 μM). The denatured and annealed RNA mixture was combined with ligation buffer, 20 pmol protein (Cyt18, lysozyme, or water in the case of (−) protein samples; 2 μM), and 30 pmol of denatured and annealed competitor RNA (3 μM).

hen egg white lysozyme [2] = molecular target: T2, hen egg white lysozyme (UniProt P00698 P00698:19-147); assay: competition
Method: as §1, §2

hen egg white lysozyme [3] = molecular target: T2, hen egg white lysozyme; assay: competition; no appreciable inhibition of lys11-2 activation
Method: as §1
(§3) Competition assays. Ligation assays were performed as described above, using 10 pmol of [³²P]-body-labeled ribozyme (cyt7-2 or lys11-2; […]) and 20 pmol effector oligonucleotide (2 μM). […]

[4] = molecular target: T1, Cyt18 (mitochondrial tyrosyl-tRNA …); assay: competition; greatest reduction of Cyt18 activation of cyt7-2; 3 uM competitor; conditions: chain copies: 2
Method: as §1, §3

Binder | binding result [1] | binding result (hen egg white lysozyme [2]) | binding result (hen egg white lysozyme [3]) | binding result [4]
M12 (ssRNA) RNA: GGGAAUGGAUCCACAUCUACGAAUUCGAGUCGAGAACUGGUGCGAAUGCGAGUAAGUUCACUCCAGACUUGACGAAGCUU | binds | no binding | – | –
c1 (ssRNA) RNA: GGGAAUGGAUCCACAUCUACGAAUUCAUCAGGGCUAAAGAGUGCAGAGUUACUUAGUUCACUCCAGACUUGACGAAGCUU | – | binds | – | –
B17 (ssRNA) RNA: GGGAAUGGAUCCACAUCUACGAAUUCGUAGCGUAGAGUAUGAGAGAGCCAAGGUCAGGUUCACUCCAGACUUGACGAAGCUU | – | no binding | – | –
ND1 group I intron (ssRNA) RNA: GACUAAUAUGAUUUGGUCUCAUUAAAGAUCACAAAUUGCUGGAAACUCCUUUGAGGCUAGGACAAUCAGCAAGGAAGUUAACAUAUAAUGUUAAAACCUUCAGAGACUAGACGUGAUCAUUUAAUAGACGCCUUGCGGCUCUUAUUAGAUAAGGUAUAGUCCAAAUUUGUAUGUAAAUACAAAAUGAUAAAAAAAAAUGAAAUCAUAUGGG | – | – | no binding | binds
